Measured values from patent US9074002B2, “PTP1B inhibitors” (Cold Spring Harbor Laboratory, priority 2009, dated 2015).

How the values were obtained:
[1] = tested on: endogenous PTP1B in Cos1 cells; assay: Colocalization of intrabody45 and PTP1B in Cos1 cells by immunofluorescence; format: cell-based; details: FIG. 14
Method: In order to verify the interaction between PTP1B-OX and scFv45 in mammalian cells, Applicant determined whether PTP and scFv45 colocalized after insulin stimulation, using immunofluorescence. Cos1 cells were grown on cover slips and transfected with scFv45 using Fugene6 as the transfection reagent according to manufacturer's instructions. The cells were serum starved 24 hours post transfection, for 16 hours at 37° C. and then stimulated with 25 nM insulin (in growth medium without serum) or left untreated. Following insulin treatment the cells were washed 2× with PBS and fixed with 5% formalin (in PBS) for 15 minutes at room temperature. The cells were washed with PBS three times at room temperature. The fixed cells were permeabilized with 0.5% Triton-X100 (in PBS) for 5 minutes at room temperature. Cells were rinsed with Wash Buffer [PBS, pH 7.4 with 0.1% BSA, 0.2% TritonX-100, 0.05% Tween-20 and 0.05% sodium azide] at room temperature. […] To quantify colocalization of PTP1B and intrabody45 from the merged images, 15 individual images were analyzed by Zeiss (LSM 710) Colocalization Viewer Software. The degree of colocalization of PTP1B and intrabody45 in each cell was expressed as colocalization coefficients that measure relative number of colocalizing pixels for the respective fluorophores for PTP1B and intrabody45, as compared to the total number of pixels. […]

[2] = tested on: phosphorylation of AKT activation loop at Threonine 308 (T308); assay: AKT phosphorylation (T308) after insulin stimulation in cells overexpressing scFv45; format: cell-based; details: cells overexpressing scFv45, insulin stimulated for different time periods; FIG. 13
Description: Applicant assessed the role of PTP1B-OX specific intrabody on the downstream readout of insulin signaling by following the phosphorylation (activation) status of AKT.

B1: scFv45: conformation-sensor scFv binding PTP1B-OX, SEQ ID NO: 26 and 78; expressed as intrabody (protein)
scFv: MKKTAIAIAVALAGFATVAQAALTQPSSVSANPGGTVKITCSGSSSAYGYGWYQQKSPGSAPVTVIYNNNKRPSNIPSRFSGSKSGSTGTLTITGVQAEDEAVYFCGSEDSSTDAIFGAGTTLTVLGQSSRSSTVTLDESGGGLQAPGGALSLVCKASGFTFSSYDMGWIRQAPGKGLEYVAGITDNGRYASYGSAVDGRATISRDNGQSSVRLQLNNLRAEDTGTYYCARDDGSGWTGNSIDAWGHGTEVIVSSTSGQAGQHHHHHHGAYPYDVPDYAS
colocalization between PTP1B and intrabody ([1]; Cos1 cells without insulin stimulation): not significant
colocalization between PTP1B and intrabody ([1]; Cos1 cells, stimulated with 25 nM insulin): Strong colocalization
AKT phosphorylation at residue Threonine 308 (T308) [2]: enhanced and sustained AKT phosphorylation
